Test results taken from the Immune Epitope Database (IEDB).
Each block holds one sequence with its values, some of them ahead of it.

What was measured:
HLA-B*15:42 = assay: IEDB peptide-MHC binding, purified MHC/competitive/fluorescence; filed as Kd, often an IC50 or EC50 that approximates it; ≥ and ≤ were set here for values at or beyond the usual limits of such assays
HLA-B*45:06 = assay: as above
HLA-B*83:01 = assay: as above
HLA-B*08:01 = assay: as above
HLA-A*03:01 [1] = assay: IEDB peptide-MHC binding, purified MHC/competitive/fluorescence; ≥ and ≤ were set here for values at or beyond the usual limits of such assays
HLA-A*11:01 [2] = assay: as above
HLA-B*39:01 = assay: IEDB peptide-MHC binding, purified MHC/competitive/fluorescence; filed as Kd, often an IC50 or EC50 that approximates it; ≥ and ≤ were set here for values at or beyond the usual limits of such assays
HLA-A*01:01 [3] = assay: as above
HLA-A*29:02 [4] = assay: as above; details: source organism: Streptococcus pneumoniae D39
HLA-A*02:03 = assay: IEDB peptide-MHC binding, purified MHC/direct/fluorescence; filed as Kd, often an IC50 or EC50 that approximates it; ≥ and ≤ were set here for values at or beyond the usual limits of such assays
HLA-A*02:11 = assay: as above
HLA-A*02:12 = assay: as above
HLA-A*02:16 = assay: as above
HLA-A*02:19 = assay: as above
HLA-A*03:01 [5] = assay: as above
HLA-A*24:03 = assay: as above
HLA-A*29:02 [6] = assay: as above
HLA-A*26:01 = assay: IEDB peptide-MHC binding, purified MHC/competitive/fluorescence; filed as Kd, often an IC50 or EC50 that approximates it; ≥ and ≤ were set here for values at or beyond the usual limits of such assays
HLA-A*69:01 = assay: as above
HLA-B*15:01 = assay: as above
HLA-B*15:17 = assay: as above
HLA-B*27:03 = assay: as above
HLA-B*46:01 = assay: as above
HLA-B*51:01 [7] = assay: as above
HLA-B*57:01 = assay: as above
HLA-B*07:02 [8] = assay: IEDB peptide-MHC binding, purified MHC/competitive/radioactivity; filed as Kd, often an IC50 or EC50 that approximates it; ≥ and ≤ were set here for values at or beyond the usual limits of such assays
HLA-B*35:01 [9] = assay: as above
HLA-B*51:01 [10] = assay: as above
HLA-B*53:01 = assay: as above
HLA-B*54:01 = assay: as above
HLA-A*02:01 [11] = assay: IEDB peptide-MHC binding, purified MHC/competitive/fluorescence; ≥ and ≤ were set here for values at or beyond the usual limits of such assays
HLA-B*35:01 [12] = assay: IEDB peptide-MHC binding, purified MHC/competitive/fluorescence; filed as Kd, often an IC50 or EC50 that approximates it; ≥ and ≤ were set here for values at or beyond the usual limits of such assays; details: source organism: Yersinia pestis Antiqua
HLA-A*68:02 = assay: IEDB peptide-MHC binding, purified MHC/direct/fluorescence; filed as Kd, often an IC50 or EC50 that approximates it; ≥ and ≤ were set here for values at or beyond the usual limits of such assays; details: source organism: Orthohantavirus sangassouense
HLA-B*07:02 [13] = assay: as above
HLA-A*02:01 [14] = assay: IEDB peptide-MHC binding, purified MHC/competitive/fluorescence; filed as Kd, often an IC50 or EC50 that approximates it; ≥ and ≤ were set here for values at or beyond the usual limits of such assays
HLA-B*18:01 = assay: as above; details: source organism: Kurkino virus
HLA-A*01:01 [15] = assay: IEDB peptide-MHC binding, purified MHC/direct/fluorescence; filed as Kd, often an IC50 or EC50 that approximates it; ≥ and ≤ were set here for values at or beyond the usual limits of such assays; details: source organism: Mus musculus
HLA-A*02:01 [16] = assay: as above; details: source organism: SARS-CoV1
HLA-A*11:01 [17] = assay: as above; details: source organism: SARS-CoV1
HLA-A*24:02 = assay: IEDB peptide-MHC binding, purified MHC/competitive/fluorescence; ≥ and ≤ were set here for values at or beyond the usual limits of such assays
[18] = source organism: Human herpesvirus 4 strain B95-8
[19] = source organism: Vaccinia virus WR
[20] = source organism: Escherichia coli 536
[21] = source organism: Orthohantavirus andesense
[22] = source organism: Sudan ebolavirus
[23] = source organism: Yersinia pestis Antiqua
[24] = source organism: Triticum aestivum
[25] = source organism: Orthohantavirus sangassouense
[26] = source organism: Mammarenavirus machupoense
[27] = source organism: SARS coronavirus Tor2
[28] = source organism: Zaire ebolavirus
[29] = source organism: Vaccinia virus Copenhagen

Sequence: DEVEFLGHY
Kd (HLA-B*15:42; [18]): ≥ 5 µM
Kd (HLA-B*45:06; [18]): ≥ 5 µM
Kd (HLA-B*83:01; [18]): ≥ 5 µM

Kd (HLA-B*08:01; source organism: Escherichia coli): 0.377 µM
Sequence: ENALRGVAV

Sequence: ETLGYCMIR
IC50 (HLA-A*03:01 [1]; [19]): ≥ 248 µM
IC50 (HLA-A*11:01 [2]; [19]): 25.2 µM

Kd (HLA-B*08:01; [20]): ≥ 20 µM
Kd (HLA-B*39:01; [20]): ≥ 20 µM
Sequence: FGGVPREVL

Sequence: FLQMENLMY
Kd (HLA-A*01:01 [3]; source organism: Bacillus anthracis str. A0488): 0.0021 µM

Sequence: GVNFNLYYY
Kd (HLA-A*01:01 [3]; source organism: Streptococcus pneumoniae D39): 0.021 µM
Kd (HLA-A*29:02 [4]): ≤ 0.0001 µM

Sequence: IQNALEKAL
Kd (HLA-A*02:03; [21]): ≥ 20 µM
Kd (HLA-A*02:11; [21]): ≥ 20 µM
Kd (HLA-A*02:12; [21]): ≥ 20 µM
Kd (HLA-A*02:16; [21]): ≥ 20 µM
Kd (HLA-A*02:19; [21]): ≥ 20 µM
Kd (HLA-A*03:01 [5]; [21]): ≥ 20 µM
Kd (HLA-A*24:03; [21]): ≥ 20 µM
Kd (HLA-A*29:02 [6]; [21]): ≥ 20 µM
Kd (HLA-A*26:01; [21]): ≥ 20 µM
Kd (HLA-A*69:01; [21]): ≥ 20 µM
Kd (HLA-B*15:01; [21]): 0.197 µM
Kd (HLA-B*15:17; [21]): ≥ 20 µM
Kd (HLA-B*27:03; [21]): ≥ 20 µM
Kd (HLA-B*46:01; [21]): ≥ 20 µM
Kd (HLA-B*51:01 [7]; [21]): ≥ 20 µM
Kd (HLA-B*57:01; [21]): ≥ 20 µM

Sequence: LPRVVGGKTV
Kd (HLA-B*07:02 [8]; [19]): 0.000306 µM
Kd (HLA-B*35:01 [9]; [19]): ≥ 28.8 µM
Kd (HLA-B*51:01 [10]; [19]): 0.0326 µM
Kd (HLA-B*53:01; [19]): 12.4 µM
Kd (HLA-B*54:01; [19]): 0.0391 µM

Sequence: LRRWGGTCR
IC50 (HLA-A*02:01 [11]; [22]): ≥ 645 µM
IC50 (HLA-A*03:01 [1]; [22]): ≥ 200 µM

Sequence: MPARLWLCL
Kd (HLA-B*08:01; [23]): 0.383 µM
Kd (HLA-B*35:01 [12]): 0.0008 µM
Kd (HLA-B*39:01; [23]): 0.108 µM
Kd (HLA-B*51:01 [7]; [23]): ≥ 20 µM

Sequence: QAFYTRVLK
IC50 (HLA-A*03:01 [1]; [19]): 1.47 µM
IC50 (HLA-A*11:01 [2]; [19]): 0.311 µM

Kd (HLA-B*07:02 [8]; [24]): ≥ 64 µM
Kd (HLA-B*35:01 [9]; [24]): ≥ 63.7 µM
Kd (HLA-B*51:01 [10]; [24]): 11.4 µM
Kd (HLA-B*53:01; [24]): ≥ 63.7 µM
Kd (HLA-B*54:01; [24]): ≥ 63.7 µM
Sequence: QPQYSQPQQPI

Sequence: RLKTTENSF
Kd (HLA-B*08:01; source organism: Influenza A virus (A/Northern Territory/60/1968(H3N2))): ≥ 20 µM

Sequence: RPTPKKMNIV
Kd (HLA-B*07:02 [8]; [19]): 0.0524 µM
Kd (HLA-B*35:01 [9]; [19]): ≥ 48.8 µM
Kd (HLA-B*51:01 [10]; [19]): ≥ 69.6 µM
Kd (HLA-B*53:01; [19]): ≥ 69.9 µM
Kd (HLA-B*54:01; [19]): 5.86 µM

Sequence: SPGDNSAKF
Kd (HLA-A*02:03; [25]): ≥ 20 µM
Kd (HLA-A*02:11; [25]): ≥ 20 µM
Kd (HLA-A*02:12; [25]): ≥ 20 µM
Kd (HLA-A*02:16; [25]): ≥ 20 µM
Kd (HLA-A*02:19; [25]): ≥ 20 µM
Kd (HLA-A*03:01 [5]; [25]): ≥ 20 µM
Kd (HLA-A*24:03; [25]): ≥ 20 µM
Kd (HLA-A*29:02 [6]; [25]): ≥ 20 µM
Kd (HLA-A*68:02): ≥ 20 µM
Kd (HLA-B*07:02 [13]; source organism: Tanganya virus): 1.96 µM
Kd (HLA-A*02:01 [14]; source organism: Kurkino virus): ≥ 20 µM
Kd (HLA-A*26:01; source organism: Kurkino virus): ≥ 20 µM
Kd (HLA-A*69:01; source organism: Kurkino virus): ≥ 20 µM
Kd (HLA-B*15:01; source organism: Kurkino virus): ≥ 20 µM
Kd (HLA-B*15:17; source organism: Kurkino virus): ≥ 20 µM
Kd (HLA-B*18:01): ≥ 20 µM
Kd (HLA-B*27:03; source organism: Kurkino virus): ≥ 20 µM
Kd (HLA-B*39:01; source organism: Kurkino virus): ≥ 20 µM
Kd (HLA-B*46:01; source organism: Kurkino virus): ≥ 20 µM
Kd (HLA-B*51:01 [7]; source organism: Kurkino virus): ≥ 20 µM
Kd (HLA-B*57:01; source organism: Kurkino virus): ≥ 20 µM

Kd (HLA-A*01:01 [15]): 0.0007 µM
Kd (HLA-A*02:01 [14]; source organism: Homo sapiens): ≥ 20 µM
Kd (HLA-A*69:01; source organism: Homo sapiens): ≥ 20 µM
Kd (HLA-B*15:42; source organism: Homo sapiens): ≥ 5 µM
Kd (HLA-B*27:03; source organism: Homo sapiens): ≥ 20 µM
Kd (HLA-B*39:01; source organism: Homo sapiens): ≥ 20 µM
Kd (HLA-B*45:06; source organism: Homo sapiens): ≥ 5 µM
Kd (HLA-B*46:01; source organism: Homo sapiens): ≥ 20 µM
Kd (HLA-B*51:01 [7]; source organism: Homo sapiens): ≥ 20 µM
Kd (HLA-B*57:01; source organism: Homo sapiens): ≥ 20 µM
Kd (HLA-B*83:01; source organism: Homo sapiens): ≥ 5 µM
Sequence: SVDSDHLGY

Sequence: TPNQPSAEF
Kd (HLA-B*07:02 [8]; [26]): 0.076 µM
Kd (HLA-B*35:01 [9]; [26]): 0.0403 µM
Kd (HLA-B*51:01 [10]; [26]): 13 µM
Kd (HLA-B*53:01; [26]): 0.565 µM
Kd (HLA-B*54:01; [26]): 18.7 µM

Sequence: TPRDLGACI
Kd (HLA-A*02:01 [16]): ≥ 36 µM
Kd (HLA-A*11:01 [17]): 9.73 µM
Kd (HLA-B*07:02 [13]; source organism: SARS-CoV1): 0.188 µM
Kd (HLA-B*35:01 [9]; [27]): 12.9 µM
Kd (HLA-B*51:01 [10]; [27]): 3.89 µM
Kd (HLA-B*53:01; [27]): ≥ 42 µM
Kd (HLA-B*54:01; [27]): 3.88 µM

Sequence: TSPQSLTTK
IC50 (HLA-A*03:01 [1]; [28]): 22.3 µM
IC50 (HLA-A*11:01 [2]; [28]): 1.76 µM

IC50 (HLA-A*03:01 [1]; source organism: Mus musculus): 12.6 µM
Sequence: VLFGLGFAI

Sequence: VSSGKNIKR
IC50 (HLA-A*02:01 [11]; [28]): ≥ 140 µM
IC50 (HLA-A*03:01 [1]; [28]): ≥ 82.2 µM
IC50 (HLA-A*11:01 [2]; [28]): 4.31 µM
IC50 (HLA-A*24:02; [28]): ≥ 163 µM

Sequence: VYGNIKHKE
IC50 (HLA-A*03:01 [1]; [29]): ≥ 158 µM
IC50 (HLA-A*11:01 [2]; [29]): 69.1 µM
IC50 (HLA-A*24:02; [29]): 34.9 µM
